# B1: KH0 domain of FMRP, R138Q pathological variant, res 122-205 (domain or fragment)
# chain: not shown
# notes: KH0 domain of human FMRP, residues 122-205, Uniprot Q06787, with the missense mutation R138Q found in FXS patients; Made by site-directed mutagenesis of the KH0 construct; the histidine tag was removed by thrombin for the fibrillation/aggregation experiments; also called KH0-R138Q; variant protein; source: E. coli BL-21 (DE3), purified (HisTrap FF, thrombin cleavage, Superdex75 size exclusion)
# Target: the molecule itself
# Test: thioflavin T fluorescence; 20 μM protein pre-incubated at 70 °C for 10 min, stoichiometric ThT, 20 mM sodium phosphate pH 7.2, 100 mM NaCl; self-association into fibrillar aggregates
protein,measurement,value
B1,binding result,binds

# Source: paper PMC9603430, “Folding Mechanism and Aggregation Propensity of the KH0 Domain of FMRP and Its R138Q Pathological Variant” (International Journal of Molecular Sciences, 2022)
